Experimental data reported in patent US20240117334A1, “FACTOR B PROTEASES” (Vertex Pharmaceuticals Incorporated, priority 2021, published 2024).
Positions count from the first letter of the chain named. Names may count otherwise.

B1: chymase C22S/K40M/F41R/L99Q/F173Y/D175R/S218I/A226R (enzyme)
chain: IIGGTESKPHSRPYMAYLEIVTSNGPSMRCGGFLIRRNFVLTAAHCAGRSITVTLGAHNITEEEDTWQKLEVIKQFRHPKYNTSTQHHDIMLLKLKEKASLTLAVGTLPFPSQFNFVPPGRMCRVAGWGRTGVLKPGSDTLQEVKLRLMDPQACSHYRRFDHNLQLCVGNPRKTKSAFKGDSGGPLLCAGVAQGIVSYGRIDAKPPRVFTRISHYRPWINQILQAN
B2: chymase C22S/P38Q/V138I/A190S/V213A/A226R (enzyme)
chain: B1 chain with P26Q, M28K, R29F, Q86L, V125I, Y157F, R159D, A177S, V196A, I201S
B3: chymase C22S/P38Q/V213Q/A226R/F228A (enzyme)
chain: B1 chain with P26Q, M28K, R29F, Q86L, Y157F, R159D, V196Q, I201S, F209A
B4: chymase C22S/P38Q/K40A/F41R/L99H/F173Y/D175Y/V213Q/S218V/A226R/F228A (enzyme)
chain: B1 chain with P26Q, M28A, Q86H, R159Y, V196Q, I201V, F209A
B5: chymase C22S/P38Q/K40A/F41R/L99H/D175N/V213Q/S218I/A226R/F228A (enzyme)
chain: B1 chain with P26Q, M28A, Q86H, Y157F, R159N, V196Q, F209A
B6: chymase C22S/P38Q/K40M/F41R/L99M/F173Y/D175N/V213Q/S218V/A226R/F228A (enzyme)
chain: B1 chain with P26Q, Q86M, R159N, V196Q, I201V, F209A
B7: chymase C22S/P38Q/K40M/F41R/D175N/V213Q/S218V/A226R/F228A (enzyme)
chain: B1 chain with P26Q, Q86L, Y157F, R159N, V196Q, I201V, F209A
B8: chymase C22S/P38Q/K40L/F41R/V138I/F173Y/D175N/A190S/V213A/S218V/A226R (enzyme)
chain: B1 chain with P26Q, M28L, Q86L, V125I, R159N, A177S, V196A, I201V
B9: chymase C22S/P38Q/K40L/F41R/L99H/V138I/F173Y/D175S/A190S/V213A/S218I/A226R (enzyme)
chain: B1 chain with P26Q, M28L, Q86H, V125I, R159S, A177S, V196A
B10: chymase C22S/P38Q/K40A/F41R/L99H/V138I/F173Y/D175N/A190S/V213A/S218V/A226R (enzyme)
chain: B1 chain with P26Q, M28A, Q86H, V125I, R159N, A177S, V196A, I201V
B11: chymase C22S/P38Q/K40A/F41K/L99H/V138I/D175S/A190S/V213A/S218V/A226R (enzyme)
chain: B1 chain with P26Q, M28A, R29K, Q86H, V125I, Y157F, R159S, A177S, V196A, I201V
B12: chymase C22S/P38Q/K40M/F41R/L99N/V138I/F173Y/D175T/A190S/V213A/S218V/A226R (enzyme)
chain: B1 chain with P26Q, Q86N, V125I, R159T, A177S, V196A, I201V
B13: chymase C22S/P38Q/K40M/F41R/V138I/F173Y/D175R/A190S/V213A/S218V/A226R (enzyme)
chain: B1 chain with P26Q, Q86L, V125I, A177S, V196A, I201V
B14: chymase C22S/P38Q/K40L/F41R/L99N/V138I/F173Y/D175N/A190S/V213A/S218V/A226R (enzyme)
chain: B1 chain with P26Q, M28L, Q86N, V125I, R159N, A177S, V196A, I201V
B15: chymase C22S/P38Q/K40A/F41R/V138I/D175R/A190S/V213A/S218T/A226R (enzyme)
chain: B1 chain with P26Q, M28A, Q86L, V125I, Y157F, A177S, V196A, I201T
B16: chymase C22S/P38Q/K40A/F41R/L99H/V138I/F173Y/A190S/V213A/S218V/A226R (enzyme)
chain: B1 chain with P26Q, M28A, Q86H, V125I, R159D, A177S, V196A, I201V
B17: chymase C22S/P38Q/K40M/F41H/L99N/V138I/F173Y/D175S/A190S/V213A/S218T/A226R (enzyme)
chain: B1 chain with P26Q, R29H, Q86N, V125I, R159S, A177S, V196A, I201T
B18: chymase C22S/P38Q/K40M/F41K/L99Y/V138I/F173M/D175Y/A190S/V213A/S218V/A226R (enzyme)
chain: B1 chain with P26Q, R29K, Q86Y, V125I, Y157M, R159Y, A177S, V196A, I201V
B19: chymase C22S/P38Q/K40A/F41R/V138I/F173S/D175T/A190S/V213A/S218V/A226R (enzyme)
chain: B1 chain with P26Q, M28A, Q86L, V125I, Y157S, R159T, A177S, V196A, I201V
B20: chymase C22S/P38Q/K40L/F41R/V138I/F173L/D175H/A190S/V213A/S218V/A226R (enzyme)
chain: B1 chain with P26Q, M28L, Q86L, V125I, Y157L, R159H, A177S, V196A, I201V
B21: chymase C22S/P38Q/K40M/F41R/L99N/V138I/D175N/A190S/V213A/S218T/A226R (enzyme)
chain: B1 chain with P26Q, Q86N, V125I, Y157F, R159N, A177S, V196A, I201T
B22: chymase C22S/P38Q/K40M/F41H/V138I/F173Y/D175R/A190S/V213A/S218V/A226R (enzyme)
chain: B1 chain with P26Q, R29H, Q86L, V125I, A177S, V196A, I201V
B23: chymase C22S/P38Q/K40M/F41R/L99Q/V138I/F173Y/D175A/A190S/V213A/S218T/A226R (enzyme)
chain: B1 chain with P26Q, V125I, R159A, A177S, V196A, I201T
B24: chymase C22S/P38Q/K40A/F41R/L99H/V138I/D175R/A190S/V213A/S218L/A226R (enzyme)
chain: B1 chain with P26Q, M28A, Q86H, V125I, Y157F, A177S, V196A, I201L
B25: chymase C22S/P38Q/K40M/F41R/L99F/V138I/F173L/D175N/A190S/V213A/A226R (enzyme)
chain: B1 chain with P26Q, Q86F, V125I, Y157L, R159N, A177S, V196A, I201S
B26: chymase C22S/P38Q/K40M/F41R/L99Y/V138I/F173L/D175S/A190S/V213A/S218V/A226R (enzyme)
chain: B1 chain with P26Q, Q86Y, V125I, Y157L, R159S, A177S, V196A, I201V
B27: chymase C22S/P38Q/K40L/F41R/V138I/D175N/A190S/V213A/S218V/A226R (enzyme)
chain: B1 chain with P26Q, M28L, Q86L, V125I, Y157F, R159N, A177S, V196A, I201V
B28: chymase C22S/P38Q/K40M/F41R/L99Y/V138I/F173Y/D175S/A190S/V213A/S218V/A226R (enzyme)
chain: B1 chain with P26Q, Q86Y, V125I, R159S, A177S, V196A, I201V
B29: chymase C22S/P38Q/K40L/F41R/V138I/F173M/D175N/A190S/V213A/S218L/A226R (enzyme)
chain: B1 chain with P26Q, M28L, Q86L, V125I, Y157M, R159N, A177S, V196A, I201L

Target: Human Factor B (human) (UniProt P00751)
Test: cell-based or functional assay

Human Factor B (human), sequence (P00751 26-764 limits assumed): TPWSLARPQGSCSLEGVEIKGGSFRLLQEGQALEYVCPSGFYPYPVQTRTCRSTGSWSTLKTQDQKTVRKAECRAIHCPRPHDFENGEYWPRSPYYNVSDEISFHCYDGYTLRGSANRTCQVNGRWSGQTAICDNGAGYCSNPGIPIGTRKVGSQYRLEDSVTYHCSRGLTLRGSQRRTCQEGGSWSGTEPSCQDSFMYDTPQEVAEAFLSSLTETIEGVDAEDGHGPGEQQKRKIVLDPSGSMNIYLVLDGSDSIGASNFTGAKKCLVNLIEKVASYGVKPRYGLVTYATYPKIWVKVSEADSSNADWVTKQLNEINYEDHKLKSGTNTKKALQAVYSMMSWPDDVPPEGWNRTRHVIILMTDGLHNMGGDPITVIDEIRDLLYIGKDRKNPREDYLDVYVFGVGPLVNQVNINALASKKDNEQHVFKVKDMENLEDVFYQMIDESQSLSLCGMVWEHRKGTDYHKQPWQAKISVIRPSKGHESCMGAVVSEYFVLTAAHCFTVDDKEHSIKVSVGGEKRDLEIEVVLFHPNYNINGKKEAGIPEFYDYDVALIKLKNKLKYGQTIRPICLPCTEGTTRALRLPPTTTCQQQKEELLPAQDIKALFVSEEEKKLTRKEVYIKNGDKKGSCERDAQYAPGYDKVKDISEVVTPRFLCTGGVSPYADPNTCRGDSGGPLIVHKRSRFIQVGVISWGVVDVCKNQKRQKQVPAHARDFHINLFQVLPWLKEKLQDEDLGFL

Binder | fB Cleavage EC50 [nM] | fB Cleavage, 80% plasma EC50 [nM] | EC50 (Factor B ELISA after digestion) [nM]
B1 | 213 | 4480 | –
B2 | 1350 | – | –
B3 | 6210 | – | –
B4 | 769 | – | –
B5 | 553 | – | –
B6 | 788 | – | –
B7 | 932 | – | –
B8 | 36.3 | – | 42.5
B9 | 60.3 | – | –
B10 | 71.8 | – | –
B11 | 142 | – | –
B12 | 92.1 | – | –
B13 | 28.1 | – | 30.2
B14 | 65.3 | – | –
B15 | 262 | – | –
B16 | 406 | – | –
B17 | 561 | – | –
B18 | 448 | – | –
B19 | 1720 | – | –
B20 | 314 | – | –
B21 | 449 | – | –
B22 | 47.6 | – | –
B23 | 724 | – | –
B24 | 191 | – | –
B25 | 870 | – | –
B26 | 814 | – | –
B27 | 114 | – | –
B28 | 103 | – | –
B29 | 456 | – | –
